{
  "source": "paper PMC9190237",
  "about": "(Biochemistry, 2022)",
  "molecules": {"B1": {"name": "Unmodified H3^(FAM) peptide (ARTKQTARKSTGG{K-FAM}) (peptide)", "peptide": "ARTKQTARKSTGGK(FAM)"}},
  "key": {"UHRF1^PHD": {"molecular_target": "T1, UHRF1^PHD (Homo sapiens, UniProt Q96T88)", "T1 sequence (Q96T88 298-366)": "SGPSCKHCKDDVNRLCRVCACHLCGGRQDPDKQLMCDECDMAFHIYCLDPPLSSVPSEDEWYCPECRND", "assay": "Intrinsic tryptophan", "assay_type": "binding", "details": "5 μM peptide, 1 μM UHRF1^PHD"}, "[1]": {"molecular_target": "UHRF1^PHD (as used for tryptophan fluorescence) (human (by the printed accession))", "assay": "intrinsic tryptophan fluorescence quenching"}, "[2]": {"molecular_target": "T2, UHRF1^TTD-PHD (His-tagged TTD-PHD domains of UHRF1; residues 133-366) (human (by the printed accession), UniProt Q96T88-1 133-366)", "T2 sequence (looked up)": "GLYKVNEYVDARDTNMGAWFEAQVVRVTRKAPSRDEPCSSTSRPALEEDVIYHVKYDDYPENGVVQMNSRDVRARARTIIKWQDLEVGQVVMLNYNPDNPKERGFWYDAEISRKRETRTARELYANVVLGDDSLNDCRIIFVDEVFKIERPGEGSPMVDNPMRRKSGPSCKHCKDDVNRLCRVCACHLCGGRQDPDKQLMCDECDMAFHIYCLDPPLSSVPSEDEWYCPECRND", "assay": "AlphaScreen or HTRF"}, "[3]": {"molecular_target": "B1", "assay": "fluorescence polarisation"}, "[4]": {"molecular_target": "T2, UHRF1^TTD-PHD (His-tagged TTD-PHD …)", "assay": "fluorescence polarisation"}, "[5]": {"molecular_target": "T3, Full-length UHRF1 (N-terminal 6xHis tag) (human (by the printed accession), UniProt Q96T88-1 1-793)", "T3 sequence (looked up)": "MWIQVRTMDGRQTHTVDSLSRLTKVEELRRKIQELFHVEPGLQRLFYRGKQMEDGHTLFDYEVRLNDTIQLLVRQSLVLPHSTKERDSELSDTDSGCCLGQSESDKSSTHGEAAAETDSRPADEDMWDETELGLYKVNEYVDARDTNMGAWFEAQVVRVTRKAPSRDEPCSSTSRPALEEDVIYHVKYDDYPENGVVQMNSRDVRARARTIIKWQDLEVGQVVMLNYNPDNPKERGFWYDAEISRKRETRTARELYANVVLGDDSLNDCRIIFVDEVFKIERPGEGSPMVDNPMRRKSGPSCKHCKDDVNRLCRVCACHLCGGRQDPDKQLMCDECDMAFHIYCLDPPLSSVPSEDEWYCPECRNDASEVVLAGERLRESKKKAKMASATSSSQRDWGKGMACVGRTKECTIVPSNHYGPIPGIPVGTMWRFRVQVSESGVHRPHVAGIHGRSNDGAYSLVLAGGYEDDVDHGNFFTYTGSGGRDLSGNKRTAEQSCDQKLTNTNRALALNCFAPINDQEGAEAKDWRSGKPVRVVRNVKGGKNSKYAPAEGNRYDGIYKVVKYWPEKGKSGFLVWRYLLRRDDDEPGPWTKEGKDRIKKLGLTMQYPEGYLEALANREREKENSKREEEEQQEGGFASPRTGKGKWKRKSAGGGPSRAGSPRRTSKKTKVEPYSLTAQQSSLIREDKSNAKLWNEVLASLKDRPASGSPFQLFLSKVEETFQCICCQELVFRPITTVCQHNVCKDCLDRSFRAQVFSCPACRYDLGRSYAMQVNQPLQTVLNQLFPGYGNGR", "assay": "fluorescence polarisation"}, "[6]": {"molecular_target": "T4, UHRF1^TTD (TTD construct alone; residues 127-285) (human (by the printed accession), UniProt Q96T88-1 127-285)", "T4 sequence (looked up)": "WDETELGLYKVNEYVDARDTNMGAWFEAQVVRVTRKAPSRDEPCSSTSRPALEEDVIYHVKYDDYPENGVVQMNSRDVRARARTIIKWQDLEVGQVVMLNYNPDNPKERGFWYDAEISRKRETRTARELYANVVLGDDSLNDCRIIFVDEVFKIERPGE", "assay": "fluorescence polarisation"}, "[7]": {"molecular_target": "T2, UHRF1^TTD-PHD (His-tagged TTD-PHD …)", "assay": "fluorescence polarisation", "remark": "listed apart in the source"}, "[8]": {"molecular_target": "T5, GST-UHRF1^PHD (residues 298-366) (human (by the printed accession), UniProt Q96T88-1 298-366)", "T5 sequence (looked up)": "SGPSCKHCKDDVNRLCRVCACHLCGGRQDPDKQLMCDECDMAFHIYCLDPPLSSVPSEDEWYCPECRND", "assay": "fluorescence polarisation"}},
  "note": "Where no end group is shown, it is not given here. FAM = fluorescein",
  "data": [
    {"molecule": "ARTKQTAR{K-me3}STGG{K-FAM} [H3K9me3^(FAM)]", "values": [
      {"measurement": "W358 tryptophan fluorescence quenching of UHRF1^PHD", "setting": "UHRF1^PHD", "result": "~ 50%"}
    ]},
    {"molecule": "H3K9me3^(FAM) peptide (ARTKQTAR{K-me3}STGG{K-FAM})", "values": [
      {"measurement": "percent quenching of W358 fluorescence", "setting": "[1]", "result": 50, "unit": "%"}
    ]},
    {"molecule": "ARTKQTARKSTGGKW (trimethyl-lysine at K9; biotin on K14)", "note": "[H3K9me3^(Biotin) peptide (ARTKQTAR{K-me3}STGG{K-biotin}W)]", "values": [
      {"measurement": "binding result", "setting": "[2]", "result": "binds"}
    ]},
    {"molecule": "GST-UHRF1^(PHD; 337A) (domain or fragment, human (by the printed accession), UniProt Q96T88-1 298-366, looked up) SGPSCKHCKDDVNRLCRVCACHLCGGRQDPDKQLMCDECAMAFHIYCLDPPLSSVPSEDEWYCPECRND", "values": [
      {"measurement": "fold impairment of binding against GST-UHRF1^PHD", "setting": "[3]", "result": "~12", "unit": "fold"}
    ]},
    {"molecule": "ARTKQTARKSTGGK (trimethyl-lysine at K9; FAM (fluorescein) on K14)", "note": "[H3K9me3^(FAM) peptide (ARTKQTAR{K-me3}STGG{K-FAM})]", "values": [
      {"measurement": "binding result", "setting": "[4]", "result": "binds"},
      {"measurement": "binding result", "setting": "[5]", "result": "binds"},
      {"measurement": "binding result", "setting": "[6]", "result": "binds"}
    ]},
    {"molecule": "B1", "values": [
      {"measurement": "binding result", "setting": "[7]", "result": "binds"},
      {"measurement": "binding result", "setting": "[8]", "result": "binds"}
    ]},
    {"molecule": "{FAM}-GKGKWKRKSAGGGPS", "note": "[PBR^(FAM) peptide ({G-FAM}KGKWKRKSAGGGPS; UHRF1 polybasic region, residues 643-657)]", "values": [
      {"measurement": "binding result", "setting": "[6]", "result": "binds"}
    ]},
    {"molecule": "ARTKQTARKSTGGKW (trimethyl-lysine at K9)", "note": "[H3K9me3 peptide (unlabeled; ARTKQTAR{K-me3}STGGKW)]", "values": [
      {"measurement": "binding result", "setting": "[2]", "result": "binds"}
    ]}
  ]
}
